Reference: paper PMC4783044, “Stoichiometry and Change of the mRNA Closed-Loop Factors as Translating Ribosomes Transit from Initiation to Elongation” (PLoS ONE, 2016)
Read-outs that look alike come from different tables or passages of the source.

T1: Flag-PAB1 (yeast, UniProt P04147 1-577)
T1 sequence (looked up): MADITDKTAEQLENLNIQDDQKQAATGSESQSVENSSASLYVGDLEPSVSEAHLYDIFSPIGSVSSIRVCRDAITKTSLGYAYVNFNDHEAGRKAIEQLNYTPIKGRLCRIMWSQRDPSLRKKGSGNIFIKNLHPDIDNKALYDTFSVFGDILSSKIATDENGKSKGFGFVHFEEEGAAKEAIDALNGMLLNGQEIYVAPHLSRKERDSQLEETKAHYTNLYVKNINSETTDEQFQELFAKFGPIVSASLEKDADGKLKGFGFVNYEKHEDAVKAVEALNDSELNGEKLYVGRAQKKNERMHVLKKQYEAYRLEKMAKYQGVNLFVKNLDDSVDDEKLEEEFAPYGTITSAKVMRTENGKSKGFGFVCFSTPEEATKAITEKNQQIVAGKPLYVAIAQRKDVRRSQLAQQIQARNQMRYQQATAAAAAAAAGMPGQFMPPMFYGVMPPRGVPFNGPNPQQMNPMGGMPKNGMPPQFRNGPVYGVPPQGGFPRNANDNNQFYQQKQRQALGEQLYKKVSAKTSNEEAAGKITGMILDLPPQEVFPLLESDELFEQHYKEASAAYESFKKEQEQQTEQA

T2: eIF4E-Flag (yeast, UniProt P07260 1-213)
T2 sequence (looked up): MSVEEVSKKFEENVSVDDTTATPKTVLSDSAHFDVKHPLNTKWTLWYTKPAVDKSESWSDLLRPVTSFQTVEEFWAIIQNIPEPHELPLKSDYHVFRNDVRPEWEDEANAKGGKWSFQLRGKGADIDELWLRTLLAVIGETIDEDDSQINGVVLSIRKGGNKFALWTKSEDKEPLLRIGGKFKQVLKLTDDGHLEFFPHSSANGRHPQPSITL


Experiments:
Flag-PAB1 [1] = target: T1, Flag-PAB1; test: co-IP + AUC; one-step anti-Flag bead purification from yeast crude extract (Tris pH 7.5, 0.15 M KCl, 2 mM MgCl2, 10% glycerol, 4°C), Flag peptide elution, then AU-FDS of the GFP fusion with AU-A230 or AU-A260 (20°C, 15,000 rpm); material migrating at 77S (monosomal translating complex); cycloheximide added to cells; cells on glucose (elongation), or glucose depleted 10 min and glucose added back for 1 min or 0 min (initiation)
eIF4E-Flag [2] = target: T2, eIF4E-Flag; test: as above
Flag-PAB1 [3] = target: T1, Flag-PAB1; test: co-IP + AUC; as a1, but material migrating from 90S to 200S (polysomal translating complexes); cells on glucose (elongation), or glucose depleted 10 min and glucose added back for 1 min (initiation)
eIF4E-Flag [4] = target: T2, eIF4E-Flag; test: as above
Flag-SBP1 (yeast) = Flag-SBP1 (yeast) (UniProt P10080); test: co-IP + AUC; one-step anti-Flag bead purification from yeast crude extract (Tris pH 7.5, 0.15 M KCl, 2 mM MgCl2, 10% glycerol, 4°C), Flag peptide elution, then AU-FDS of the GFP fusion with AU-A230 or AU-A260 (20°C, 15,000 rpm); material migrating at 77S (monosomal translating complex); cycloheximide added to cells; cells on glucose (elongation), or glucose depleted 10 min and glucose added back for 1 min or 0 min (initiation)
Flag-PAB1 [5] = target: T1, Flag-PAB1; test: co-IP + AUC; one-step anti-Flag bead purification from yeast crude extract (Tris pH 7.5, 0.15 M KCl, 2 mM MgCl2, 10% glycerol, 4°C), Flag peptide elution, then AU-FDS of the GFP fusion with AU-A230 or AU-A260 (20°C, 15,000 rpm); material migrating at 77S (monosomal translating complex); cycloheximide added to cells; cells on glucose (elongation), or glucose depleted 10 min and glucose added back for 1 min or 0 min …; conditions: partners not purified
eIF4E-Flag [6] = target: T2, eIF4E-Flag; test: as above; conditions: partners not purified

Sequence of Flag-SBP1 (yeast) (P10080 whole entry, the tested form may be a part): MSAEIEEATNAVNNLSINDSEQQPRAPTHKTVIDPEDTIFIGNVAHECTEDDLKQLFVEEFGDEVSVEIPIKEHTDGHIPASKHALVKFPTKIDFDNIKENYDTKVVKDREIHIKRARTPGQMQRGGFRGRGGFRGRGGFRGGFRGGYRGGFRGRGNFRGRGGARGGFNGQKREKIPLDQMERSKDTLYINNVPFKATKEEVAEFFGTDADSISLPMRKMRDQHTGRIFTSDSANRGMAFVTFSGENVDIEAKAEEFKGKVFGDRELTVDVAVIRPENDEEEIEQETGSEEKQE

Row | relative level in the 77S monosomal translating complex, mRNA set at 100 (elongation) (Flag-PAB1 [1]) [per 100 mRNA] | relative level in the 77S monosomal translating complex, mRNA set at 100 (initiation) (Flag-PAB1 [1]) [per 100 mRNA] | relative level in the 77S monosomal translating complex, mRNA set at 100 (elongation) (eIF4E-Flag [2]) [per 100 mRNA] | percent of the polyadenylated polysomes that contain SBP1 (Flag-PAB1 [3]) [%] | relative level in the polysomal translating complexes (90S to 200S), mRNA set at 100 (elongation) (Flag-PAB1 [3]) [per 100 mRNA] | relative level in the polysomal translating complexes (90S to 200S), mRNA set at 100 (initiation) (Flag-PAB1 [3]) [per 100 mRNA] | relative level in the polysomal translating complexes (90S to 200S), mRNA set at 100 (elongation) (eIF4E-Flag [4]) [per 100 mRNA] | relative level in the 77S monosomal translating complex, mRNA set at 100 (elongation) (Flag-SBP1 (yeast)) [per 100 mRNA] | relative level in the 77S monosomal translating complex, mRNA set at 100 (elongation) (Flag-PAB1 [5]) [per 100 mRNA] | relative level in the 77S monosomal translating complex, mRNA set at 100 (initiation) (Flag-PAB1 [5]) [per 100 mRNA] | relative level in the 77S monosomal translating complex, mRNA set at 100 (elongation) (eIF4E-Flag [6]) [per 100 mRNA] | relative level in the 77S monosomal translating complex, mRNA set at 100 (initiation) (eIF4E-Flag [6]) [per 100 mRNA] | relative level in the polysomal translating complexes (90S to 200S), mRNA set at 100 (elongation) (Flag-PAB1 [3]; partners not purified) [per 100 mRNA] | relative level in the polysomal translating complexes (90S to 200S), mRNA set at 100 (initiation) (Flag-PAB1 [3]; partners not purified) [per 100 mRNA] | relative level in the polysomal translating complexes (90S to 200S), mRNA set at 100 (elongation) (eIF4E-Flag [4]; partners not purified) [per 100 mRNA] | relative level in the polysomal translating complexes (90S to 200S), mRNA set at 100 (initiation) (eIF4E-Flag [4]; partners not purified) [per 100 mRNA] | Molecule
1 | 2.1 | 3.3 | < 0.3 | 8.6 | 8.3 | 11 | < 0.3 | – | – | – | – | – | – | – | – | – | SBP1-GFP (from UniProt P10080 1-294) (natural protein)
2 | 0.97 | 0.97 | 2.8 | – | < 0.3 | < 0.3 | < 0.3 | < 0.3 | – | – | – | – | – | – | – | – | eRF1-GFP (from UniProt P12385 1-437) (natural protein)
3 | – | – | – | – | – | – | – | < 0.3 | 3.9 | 6.2 | 15 | 15 | 9.4 | 13 | 61 | 56 | eIF4G2-GFP (natural protein, yeast, UniProt P39936 1-914, looked up, eIF4G2 of yeast, GFP fusion; The printed name puts GFP after the protein; also called TIF4632-GFP; source: yeast strain RP2384 (TIF4632-GFP::G418), in crude extract) MTDQRGPPPPHPQQANGYKKFPPHDNQYSGANNSQPNNHYNENLYSAREPHNNKQYQSKNGKYGTNKYNNRNNSQGNAQYYNNRFNNGYRLNNNDYNPAMLPGMQWPANYYAPQMYYIPQQMVPVASPPYTHQPLNTNPEPPSTPKTTKIEITTKTGERLNLKKFHEEKKASKGEEKNDGVEQKSKSGTPFEKEATPVLPANEAVKDTLTETSNEKSTSEAENTKRLFLEQVRLRKAAMERKKNGLISETEKKQETSNHDNTDTTKPNSVIESEPIKEAPKPTGEANEVVIDGKSGASVKTPQHVTGSVTKSVTFNEPENESSSQDVDELVKDDDTTEISDTTGGKTVNKSDDETINSVITTEENTVKETEPSTSDIEMPTVSQLLETLGKAQPISDIYEFAYPENVERPDIKYKKPSVKYTYGPTFLLQFKDKLKFRPDPAWVEAVSSKIVIPPHIARNKPKDSGRFGGDFRSPSMRGMDHTSSSRVSSKRRSKRMGDDRRSNRGYTSRKDREKAAEKAEEQAPKEEIAPLVPSANRWIPKSRVKKTEKKLAPDGKTELFDKEEVERKMKSLLNKLTLEMFDSISSEILDIANQSKWEDDGETLKIVIEQIFHKACDEPHWSSMYAQLCGKVVKDLDPNIKDKENEGKNGPKLVLHYLVARCHEEFEKGWADKLPAGEDGNPLEPEMMSDEYYIAAAAKRRGLGLVRFIGYLYCLNLLTGKMMFECFRRLMKDLNNDPSEETLESVIELLNTVGEQFEHDKFVTPQATLEGSVLLDNLFMLLQHIIDGGTISNRIKFKLIDVKELREIKHWNSAKKDAGPKTIQQIHQEEEQLRQKKNSQRSNSRFNNHNQSNSNRYSSNRRNMQNTQRDSFASTKTGSFRNNQRNARKVEEVSQAPRANMFDALMNNDGDSD
